The results in this text go back to patent CN106117361A (UNIV SUN YAT SEN, dated 2016).

What is called koff is the rate constant with which the complex falls apart.

For the assay, the target named is T1, CD3-His蛋白(MP-5).
T1 construct: Immunogen and panning antigen; also called CD3蛋白
The assay is described as follows: BLI (Octet RED96) off-rate screening, sdAb-SASA from expression medium captured on BSA-coated biosensor, CD3 at 100 nM in solution, 30°C, 1:1 Langmuir model.

B1: A30322 抗CD3单域抗体 (sdAb) (VHH)
VHH: EVQLVECGGGLVQAGGSLRLSCAASGRTFDTMGWFRQAPGKEREFVAAVRWSSGNTYYGNTVKGRFTISRDTATNTVYLEMNSLKHEDTAVYYCAARLAGRGAADHWGQGTQVTVSS
notes: Llama-derived sdAb; Tested as crude sdAb-SASA protein in E. coli expression medium / culture supernatant (FASEBA format), not purified; also called sdAb-SASA蛋白; not shown: SASA fusion partner from the pFASEBA vector (sdAb-SASA protein in expression medium)
For B1, the koff came out at 1.43e-05 s⁻¹.
